# From paper PMC2573054 (The Journal of Biological Chemistry, 2008)
# Biological target: His-Rac2 (hexahistidine-tagged Rac2^G12V, aa 2-177) (human, UniProt P15153 2-177, G12V)
# Test: SPR
Kd [µM],koff [s⁻¹],kon [M⁻¹ s⁻¹],Binder
3.9,0.0031,806,"c-myc epitope-tagged human PLCγ2 (PLCγ2-222, wild type) (enzyme) MSTTVNVDSLAEYEKSQIKRALELGTVMTVFSFRKSTPERRTVQVIMETRQVAWSKTADKIEGFLDIMEIKEIRPGKNSKDFERAKAVRQKEDCCFTILYGTQFVLSTLSLAADSKEDAVNWLSGLKILHQEAMNASTPTIIESWLRKQIYSVDQTRRNSISLRELKTILPLINFKVSSAKFLKDKFVEIGAHKDELSFEQFHLFYKKLMFEQQKSILDEFKKDSSVFILGNTDRPDASAVYLHDFQRFLIHEQQEHWAQDLNKVRERMTKFIDDTMRETAEPFLFVDEFLTYLFSRENSIWDEKYDAVDMQDMNNPLSHYWISSSHNTYLTGDQLRSESSPEAYIRCLRMGCRCIELDCWDGPDGKPVIYHGWTRTTKIKFDDVVQAIKDHAFVTSSFPVILSIEEHCSVEQQRHMAKAFKEVFGDLLLTKPTEASADQLPSPSQLREKIIIKHKKLGPRGDVDVNMEDKKDEHKQQGELYMWDSIDQKWTRHYCAIADAKLSFSDDIEQTMEEEVPQDIPPTELHFGEKWFHKKVEKRTSAEKLLQEYCMETGGKDGTFLVRESETFPNDYTLSFWRSGRVQHCRIRSTMEGGTLKYYLTDNLTFSSIYALIQHYRETHLRCAEFELRLTDPVPNPNPHESKPWYYDSLSRGEAEDMLMRIPRDGAFLIRKREGSDSYAITFRARGKVKHCRINRDGRHFVLGTSAYFESLVELVSYYEKHSLYRKMRLRYPVTPELLERYNMERDINSLYDVSRMYVDPSEINPSMPQRTVKALYDYKAKRSDELSFCRGALIHNVSKEPGGWWKGDYGTRIQQYFPSNYVEDISTADFEELEKQIIEDNPLGSLCRGILDLNTYNVVKAPQGKNQKSFVFILEPKQQGDPPVEFATDRVEELFEWFQSIREITWKIDTKENNMKYWEKNQSIAIELSDLVVYCKPTSKTKDNLENPDFREIRSFVETKADSIIRQKPVDLLKYNQKGLTRVYPKGQRVDSSNYDPFRLWLCGSQMVALNFQTADKYMQMNHALFSLNGRTGYVLQPESMRTEKYDPMPPESQRKILMTLTVKVLGARHLPKLGRSIACPFVEVEICGAEYDNNKFKTTVVNDNGLSPIWAPTQEKVTFEIYDPNLAFLRFVVYEEDMFSDPNFLAHATYPIKAVKSGFRSVPLKNGYSEDIELASLLVFCEMRPVLESEEELYSSCRQLRRRQEELNNQLFLYDTHQNLRNANRDALVKEFSVNENQLQLYQEKCNKRLREKRVSNSKFYS"
5.8,0.0025,434,"PLCγ1-122 (PLCγ1 with both portions of the split PH domain of PLCγ2), c-myc epitope-tagged (enzyme) MAGAASPCANGCGPGAPSDAEVLHLCRSLEVGTVMTLFYSKKSQRPERKTFQVKLETRQITWSRGADKIEGAIDIREIKEIRPGKTSRDFDRYQEDPAFRPDQSHCFVILYGMEFRLKTLSLQATSEDEVNMWIKGLTWLMEDTLQAPTPLQIERWLRKQFYSVDRNREDRISAKDLKNMLSQVNYRVPNMRFLRERLTDLEQRSGDITYGQFAQLYRSLMYSAQKTMDLPFLEASTLRAGERPELCRVSLPEFQQFLLDYQGELWAVDRLQVQEFMLSFLRDPLREIEEPYFFLDEFVTFLFSKENSVWNSQLDAVCPDTMNNPLSHYWISSSHNTYLTGDQFSSESSLEAYARCLRMGCRCIELDCWDGPDGMPVIYHGHTLTTKIKFSDVLHTIKEHAFVASEYPVILSIEDHCSIAQQRNMAQYFKKVLGDTLLTKPVEISADGLPSPNQLKRKILIKHKKLAEGSAYEEVPTSMMYMEDKKDEHKQQGELYMWDSIDQKWTRHYCAIADAKLSFSDDIEQTMGNEDEEEPKEVSSSTELHSNEKWFHGKLGAGRDGRHIAERLLTEYCIETGAPDGSFLVRESETFVGDYTLSFWRNGKVQHCRIHSRQDAGTPKFFLTDNLVFDSLYDLITHYQQVPLRCNEFEMRLSEPVPQTNAHESKEWYHASLTRAQAEHMLMRVPRDGAFLVRKRNEPNSYAISFRAEGKIKHCRVQQEGQTVMLGNSEFDSLVDLISYYEKHPLYRKMKLRYPINEEALEKIGTAEPDYGALYEGRNPGFYVEANPMPTFKCAVKALFDYKAQREDELTFIKSAIIQNVEKQEGGWWRGDYGGKKQLWFPSNYVEEMVNPVALEPEREHLDENSPLGDLCRGILDLNTYNVVKAPQGKNQKSFVFILEPKQQGDPPVEFATDRVEELFEWFQSIREITWKIDTKETEGKIMERRKKIALELSELVVYCRPVPFDEEKIGTERACYRDMSSFPETKAEKYVNKAKGKKFLQYNRLQLSRIYPKGQRLDSSNYDPLPMWICGSQLVALNFQTPDKPMQMNQALFMTGRHCGYVLQPSTMRDEAFDPFDKSSLRGLEPCAISIEVLGARHLPKNGRGIVCPFVEIEVAGAEYDSTKQKTEFVVDNGLNPVWPAKPFHFQISNPEFAFLRFVVYEEDMFSDQNFLAQATFPVKGLKTGYRAVPLKNNYSEDLELASLLIKIDIFPAKQENGDLSPFSGTSLRERGSDASGQLFHGRAREGSFESRYQQPFEDFRISQEHLADHFDSRERRAPRRTRVNGDNRL"
17,0.0016,93.8,"PLCγ2 spPH (aa 471-913, Δ516-841), wild type (domain or fragment) GGSGGSKKDEHKQQGELYMWDSIDQKWTRHYCAIADAKLSFSDDIEQTMEEDNPLGSLCRGILDLNTYNVVKAPQGKNQKSFVFILEPKQQGDPPVEFATDRVEELFEWFQSIREITWKIDTK"
